# Experimental data: the supplement of paper PMC7125110
# ± gives the standard error. For part of these data: This sample holds only a part of the variants without activity.
# B1: glmS ribozyme (parent)
# chain: AUAAAAGCGCCAGAACUACAGAAAUGUAGUUGACGAGGAGGAGGUUUAUCGAAUUUUCGGCGGAUGCCUCCAAA
# Key:
# Conditions in all cases: with glucosamine-6-phosphate
# [1] = variants of: B1; assay: kcat; higher = faster cleavage; RNA array
# How it was run: (§1)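 Glucosamine-6-phosphate in HEPES/KCl/Mg(OAc)2 buffer, at 40 μM to 10 mM, was flowed over barcoded ribozyme variants transcribed in situ by E. coli RNA polymerase on sequenced MiSeq chips. Tracking was through a hybridised Cy3 probe at 37 °C. kobs, kcat and KM came from exponential decay fits and weighted Michaelis–Menten fits of normalised per-tile medians.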
# [2] = variants of: B1; assay: KM; higher = weaker cofactor use; RNA array
# How it was run: as §1
# [3] = variants of: B1; assay: self-cleavage kobs at 40 uM GlcN6P; higher = faster cleavage; RNA array
# How it was run: as §1
# [4] = variants of: B1; assay: self-cleavage kobs at 160 uM GlcN6P; higher = faster cleavage; RNA array
# How it was run: as §1
# [5] = variants of: B1; assay: self-cleavage kobs at 640 uM GlcN6P; higher = faster cleavage; RNA array
# How it was run: as §1
# [6] = variants of: B1; assay: self-cleavage kobs at 2500 uM GlcN6P; higher = faster cleavage; RNA array
# How it was run: as §1
# [7] = variants of: B1; assay: self-cleavage kobs at 10000 uM GlcN6P; higher = faster cleavage; RNA array
# How it was run: as §1
Variant,kcat [1],KM [2],self-cleavage kobs at 40 uM GlcN6P [3],self-cleavage kobs at 160 uM GlcN6P [4],self-cleavage kobs at 640 uM GlcN6P [5],self-cleavage kobs at 2500 uM GlcN6P [6],self-cleavage kobs at 10000 uM GlcN6P [7]
U30A U55C,0.0088 ± 0.0027 s⁻¹,3470 ± 1500 µM,0.000194 ± 3.2e-05 s⁻¹,0.000315 ± 5.6e-05 s⁻¹,0.00129 ± 0.00024 s⁻¹,0.00471 ± 0.0012 s⁻¹,0.00647 ± 0.00073 s⁻¹
C11U U46C,7.67e-05 ± 2e-05 s⁻¹,,< 1e-05 s⁻¹,,3.45e-05 ± 1.3e-05 s⁻¹,3.71e-05 ± 9.8e-06 s⁻¹,6.92e-05 ± 1.1e-05 s⁻¹
A48U C71G,4.92e-05 ± 1e-05 s⁻¹,,,,4.04e-05 ± 7.5e-06 s⁻¹,6.5e-05 ± 9.8e-06 s⁻¹,3.69e-05 ± 8e-06 s⁻¹
C10G G60C,0.00245 ± 0.00047 s⁻¹,2180 ± 610 µM,3.56e-05 ± 6.7e-06 s⁻¹,0.000167 ± 2.9e-05 s⁻¹,0.000733 ± 8.9e-05 s⁻¹,0.00117 ± 0.00023 s⁻¹,0.00198 ± 0.00023 s⁻¹
C34A G38C,< 1e-05 s⁻¹,,,,< 1e-05 s⁻¹,,
G41A A48U,4.08e-05 ± 6.1e-06 s⁻¹,,< 1e-05 s⁻¹,< 1e-05 s⁻¹,,3.76e-05 ± 1.1e-05 s⁻¹,3.63e-05 ± 1e-05 s⁻¹
C10G G59A,< 1e-05 s⁻¹,,< 1e-05 s⁻¹,< 1e-05 s⁻¹,,,
U46G U47C,0.00353 ± 0.0011 s⁻¹,981 ± 440 µM,0.000104 ± 2.7e-05 s⁻¹,0.000744 ± 0.00015 s⁻¹,0.00158 ± 0.00026 s⁻¹,0.00225 ± 0.00047 s⁻¹,0.00332 ± 0.0012 s⁻¹
A15C C58U,3.18e-05 ± 2.2e-06 s⁻¹,214 ± 97 µM,,,,2.9e-05 ± 1.1e-05 s⁻¹,
G32U C71U,0.00136 ± 0.0003 s⁻¹,5540 ± 1700 µM,,6.14e-05 ± 1.3e-05 s⁻¹,0.000146 ± 1.1e-05 s⁻¹,0.00037 ± 3.3e-05 s⁻¹,0.000927 ± 7.7e-05 s⁻¹
G44C U47C,1.4e-05 ± 4.3e-06 s⁻¹,,,,,,
A12G G41U,0.000763 ± 4.6e-05 s⁻¹,,,,4.77e-05 ± 1.4e-05 s⁻¹,0.000147 ± 2.1e-05 s⁻¹,0.000377 ± 4.1e-05 s⁻¹
U45C U57A,1.9e-05 ± 2.7e-06 s⁻¹,,,,,,
U45C U57C,1.67e-05 ± 1e-06 s⁻¹,6920 ± 1000 µM,,,,,
A33U C50U G59U,1.02e-05 ± 3e-06 s⁻¹,,,,,,
A42U A52G,1.76e-05 ± 2.4e-06 s⁻¹,,,< 1e-05 s⁻¹,,,1.62e-05 ± 7.9e-06 s⁻¹
C11A A15C,7.9e-05 ± 2.8e-05 s⁻¹,,,,,8.45e-05 ± 1.9e-05 s⁻¹,5.67e-05 ± 2.2e-05 s⁻¹

Variant,kcat [1],KM [2],self-cleavage kobs at 40 uM GlcN6P [3],self-cleavage kobs at 160 uM GlcN6P [4],self-cleavage kobs at 640 uM GlcN6P [5],self-cleavage kobs at 2500 uM GlcN6P [6],self-cleavage kobs at 10000 uM GlcN6P [7]
U57A,0.000404 ± 1.3e-05 s⁻¹,3120 ± 170 µM,,2.27e-05 ± 2.2e-06 s⁻¹,6.91e-05 ± 1.6e-06 s⁻¹,0.000175 ± 4e-06 s⁻¹,0.000311 ± 6.3e-06 s⁻¹
A15G G32U,0.00117 ± 2.6e-05 s⁻¹,2990 ± 100 µM,,6.02e-05 ± 1.1e-05 s⁻¹,0.000208 ± 2.6e-05 s⁻¹,0.000525 ± 5.2e-05 s⁻¹,0.000917 ± 0.00013 s⁻¹
U56G G66A,0.0089 ± 0.0034 s⁻¹,,0.00021 ± 3.4e-05 s⁻¹,0.00049 ± 0.00011 s⁻¹,0.00136 ± 0.00037 s⁻¹,0.00405 ± 0.00078 s⁻¹,0.00875 ± 0.0018 s⁻¹
G41A A52G,8.32e-05 ± 1.6e-05 s⁻¹,,,,,7.3e-05 ± 1.3e-05 s⁻¹,6.83e-05 ± 1.3e-05 s⁻¹
A48G U56G,7.92e-05 ± 1.9e-06 s⁻¹,696 ± 110 µM,< 1e-05 s⁻¹,,,6.4e-05 ± 1.3e-05 s⁻¹,7.35e-05 ± 8.9e-06 s⁻¹
C16A U45C,9.45e-05 ± 2.3e-05 s⁻¹,,,,,8.36e-05 ± 2.3e-05 s⁻¹,7.72e-05 ± 1.4e-05 s⁻¹
U55A C70A,0.00013 ± 1.3e-05 s⁻¹,116 ± 52 µM,2.79e-05 ± 1.1e-05 s⁻¹,8.57e-05 ± 2e-05 s⁻¹,0.00011 ± 2.1e-05 s⁻¹,0.000155 ± 2.2e-05 s⁻¹,0.000114 ± 1.4e-05 s⁻¹
A14U A53C,0.00136 ± 0.00017 s⁻¹,1970 ± 410 µM,3.59e-05 ± 9.1e-06 s⁻¹,9.57e-05 ± 1.5e-05 s⁻¹,0.000309 ± 3.9e-05 s⁻¹,0.000834 ± 7.7e-05 s⁻¹,0.00105 ± 0.00014 s⁻¹
G41U C70U,0.0009 ± 0.00017 s⁻¹,,0.000457 ± 3.9e-05 s⁻¹,0.000709 ± 0.0001 s⁻¹,0.000714 ± 0.00011 s⁻¹,0.00131 ± 0.00021 s⁻¹,
A53C U57G,0.000348 ± 0.00012 s⁻¹,,,,9.98e-05 ± 1.6e-05 s⁻¹,0.000143 ± 1.9e-05 s⁻¹,0.000339 ± 4.6e-05 s⁻¹
A64C U65A,2.96e-05 ± 5.1e-06 s⁻¹,,< 1e-05 s⁻¹,< 1e-05 s⁻¹,,,
G37A U54G,0.00267 ± 0.00094 s⁻¹,,6.88e-05 ± 1.3e-05 s⁻¹,0.000132 ± 2.9e-05 s⁻¹,0.000413 ± 9.4e-05 s⁻¹,0.000936 ± 0.00022 s⁻¹,0.00234 ± 0.00032 s⁻¹
A14C G41U,0.000291 ± 6.9e-05 s⁻¹,,,,0.000102 ± 1.6e-05 s⁻¹,0.000161 ± 2.2e-05 s⁻¹,0.000272 ± 4.2e-05 s⁻¹
C11U U49G,1.33e-05 ± 1.3e-06 s⁻¹,,< 1e-05 s⁻¹,,,,
C16A C67U,0.000302 ± 4.6e-05 s⁻¹,782 ± 280 µM,,6.4e-05 ± 1.4e-05 s⁻¹,0.000122 ± 1.3e-05 s⁻¹,0.000286 ± 3.2e-05 s⁻¹,0.000261 ± 3.1e-05 s⁻¹
U31A A42U,0.000111 ± 8.8e-06 s⁻¹,3380 ± 670 µM,,,,5.06e-05 ± 1.3e-05 s⁻¹,8.19e-05 ± 1.4e-05 s⁻¹
U65C C70U,0.000844 ± 0.0001 s⁻¹,2930 ± 550 µM,,3.71e-05 ± 1e-05 s⁻¹,0.000169 ± 2.7e-05 s⁻¹,0.000379 ± 7.6e-05 s⁻¹,0.000647 ± 0.0001 s⁻¹
